# Measurements: article PMC6915026
# B1: antisynuclein aptamer (ssDNA)
# DNA: ATAGTCCCATCATTCATTGTATGGTACGGCGCGGTGGCGGGTGCGTGGAGATATTAGCAAGTGTCA
# Molecular target: alpha-synuclein (UniProt P37840 1-140)
# Test: interdigitated electrode current change (aptamer-GNP immobilized); 1 uM protein; titration 10 pM-1 uM, detection limit 10 pM (not a Kd); Aptamer-GNP on APTES-modified IDE, blocked with 1 M ethanolamine (30 min, RT); PBS listed as reagent, binding buffer, salt, pH and temperature not stated
binder,measurement,value
B1,binding result,binds
